Data published in US20260285984 (published 2026).

Biological target: PD-1 (human)
Test: SPR (range 50-70 nM)

Sequence of PD-1 (human) (chain, as listed by the source): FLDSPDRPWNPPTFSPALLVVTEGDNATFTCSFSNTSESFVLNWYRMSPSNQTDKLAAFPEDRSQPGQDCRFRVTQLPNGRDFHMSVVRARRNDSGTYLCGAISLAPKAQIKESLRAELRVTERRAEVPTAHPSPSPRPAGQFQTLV

Kd: ~60 nM
B1: PD-1 agonist VHH (antibody, V domains shown)
VH: EVQLVESGGALVQPGGSLRLSCAASGFTFSSYAMTWVRQAPGKGPEWVSAIASDGASTSYLDSVKGRFTVSRDNAKNTLYLQMNSLKPEDTAVYYCARGGYLTYDRYGQGTQVTVSS
